Laboratory results published in the nanobody polyreactivity screen of Harvey et al. (2022).

test: yeast display, Sf9 membrane polyspecificity reagent, FACS + sequencing; frameworks hold sequencing errors
Procedure, shortened: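 After 36–48 hours of galactose induction, yeast (Saccharomyces cerevisiae BJ5465) displaying a synthetic nanobody library were stained at 4 °C for 1 hour with 10% biotinylated, detergent-solubilized Sf9 membrane reagent. Streptavidin microbeads enriched the stained cells before FACS sorting into low and high (top ~1%) gates on anti-HA and streptavidin fluorescence. Each clone's polyreactivity label reflects its gate of origin.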

| Sequence | polyreactivity (PSR sort gate) |
| --- | --- |
| QVQLVESGGGLVQAGGSLRLSCAACGSTFSVHAMGWYRQAPGKERELVAAISWGGTSTYYADSVKGRFTISRDNAKNTVYLQMNSLKPEDTAVYYCAAVSRGKVNTVYYWGQGTQVTVSS | high polyreactivity |
| QVQLVESGGGLVQAGGSLRLSCAADGFTFYVYAMGWYRQAPGKERELVADISRRGGSTYYADYVKGRFTISRDNEKNHVYLQMNSLKPEDTAVYYCAAQYYGGGTYWYRYGYWGQGTQVTLSS | high polyreactivity |
| QVQLVESGGGLVQAGGSLRLSCAAPGLTFWSYAMGWYRPAPGKERELVADITYRGGSTYYADSVKGRFTISRDNAKNTVYLQMNSLKPEDTAVYYCAARKKYRFDYWGQGTQVTVSS | high polyreactivity |
| QVQLVESGGGLVQAGGSLRLSCAAPGSIFGTNAMGWYRQAPGKERELVAAINWSGGTTYYADSVKGRFTISRDNAKNTVYLQMNSLKPEDTAVYYCATVFFVLPPTRFDSWGQGTQVTVSS | low polyreactivity |
| QVQLVESGGGLVQAGGSLRLSCAASAFTFKYNVMGWYRQAPGTERELLAAISKRGGNTYYADSVKGRFTISRDNAKNTVYLQMNSLKPEDTAVYYCAADPTSPETSGQGYDYWGQGTQVTVSS | high polyreactivity |
| QVQLVESGGGLVQAGGSLRLSCAASAFTFYTNAMGWYRQAPGKERELVAAISGGGSTKYADSVKGRFTISRDNAKNTVYLQMNSLKPEDTAVYYCAAQIKWGYRRNRHDYWGQGTQVTVSS | high polyreactivity |
| QVQLVESGGGLVQAGGSLRLSCAASAITVKRDVMGWYRQAPGKERELVAAISRTGGSTYYADSVKGRFTISRDNAKNTVYLQMNSLKPEDTAVYYCAAATCPGIYDYWGQGTQVTVSS | high polyreactivity |
| QVQLVESGGGLVQAGGSLRLSCAASALTFQAYTMGWYRQAPGKERELDAAISRNGGRTYYADSVKGRFTISRDNAKNTVYLQMNSLKPEDTAVYYCAAVHFVVSPGRGDDYWGQCTQVTVSS | high polyreactivity |
| QVQLVESGGGLVQAGGSLRLSCAASALTLRHYAMGWYRQAPGKERELVARIRISGRTYYADSVKGRFTISRDNAKNTVYLQMNSLKPEDTAVYYCAKVQFATSPPGLTLSYYYWGQGTQVTVSS | high polyreactivity |
| QVQLVESGGGLVQAGGSLRLSCAASANTFPTNAMGWYRQAPGKEMELVATISLGAGSTHYADSVKVRFTISRDNAKNTVYLQMNSLTPEDTAVYYCAARSRRWYDYDYWGQGTQVTVSS | low polyreactivity |
| QVQLVESGGGLVQAGGSLRLSCAASARIFRYYAMGWYRQAPGKERELVAGISWRGSSTYYADSVKGRFTISRDNAKNTVYLQMNSLKPEDTAVYYCNRDQSNIPVTGGRFYYWRQGTQVTVSS | high polyreactivity |
| QVQLVESGGGLVQAGGSLRLSCAASARTLAHYTMGWYRQAPGKERELVAAITFSGGRTYYADSVKGRFTISRDTAKNTVYLQMNSLKPEDTAVYYCNADGYWVVPLDDSYEYWGQGTQVTVSS | low polyreactivity |
| QVQLVESGGGLVQAGGSLRLSCAASASIFASNAMGLYRQAPGKERELVAAINSADSTNYADSVKGRFRISRDNAKNTVYLQMNRLKPEDPAVFYCARGLEERYDYWGLGTQVTVSS | low polyreactivity |
| QVQLVESGGGLVQAGGSLRLSCAASASIFDHYAMGCYRQAPGKARELVAAITWDGTSTYYADSVKGRFTISRDNAKNTVYLQMNSLKPEDTAVYYCADDFYPYSWEEVDYWGQGTQVTVSS | low polyreactivity |
| QVQLVESGGGLVQAGGSLRLSCAASASIFVNNAKGWYRQATGKERELVAAISSRSSRTIYADSVKGRFTISRDNAKKTVYLQMNSLKPEDTAVYYCAVKKRAPDGDYWGQGTQVTVSS | high polyreactivity |
| QVQLVESGGGLVQAGGSLRLSCAASASIYFPYTMGWYRQAPGKERELVARISLGGGRTYYADSVKGRFTISRDNAKNTVYLQMNSLKPEDTAVYYCAAVYYYGKWSYGYWIYEYWGQGTQVTVSS | high polyreactivity |
| QVQLVESGGGLVQAGGSLRLSCAASASTFGGYVMARYRQAPGKERELVAAISGNGASTTYADSVKGRFTISRDNAKNTVYLQMNSLKPEDTAVYDSAALFRKAHSDYDYWGQGTQVTVSS | low polyreactivity |
| QVQLVESGGGLVQAGGSLRLSCAASCVRNAMGWYRQAPGKERELVAAITSGGNTNYADSVKGRFTISRDNAKNTVYLQMNSLKPEDTAVYYCAKDLLYYTQQGTGVVDYDYWGQGTQVTVSS | low polyreactivity |
| QVQLVESGGGLVQAGGSLRLSCAASDAMGWYRRAPGKERELVASISNGVSTNYADSVKGRFTISRDNAKNTVYLQMNSLKPEVTAVYYCASDAKTVGRDDLYWYEVEFDYWGQGTQVSVSS | low polyreactivity |
| QVQLVESGGGLVQAGGSLRLSCAASESIFVRNAMGWYRQAPGKERELVASITYSGSRTYYADSVKGRFTISRDNAKNTVYLQMNRLKPEDTAVYYCAKVRVLVDKWSTFYEYYYWVQGTQVTVSS | low polyreactivity |
| QVQLVESGGGLVQAGGSLRLSCAASGAIFDWYAMGGDRPAPGKERELVADITWSGDSTYYADSVKGRFTISRDHAKNTVYLKMNSLKPEDTAVFYCAADIWFYTYYEYDYWGQGTQVTVSS | high polyreactivity |

| Sequence | polyreactivity (PSR sort gate) |
| --- | --- |
| QVQLVESGGGLVQAGGSLRLSCAASGAIFFFNAMGWYRQAPGKEREFVAAITSSSGRTYYADSVKGRFTISRDNAKNSVYLQMNSLKPEDTAVYSCDADWAWLQWAYDYWGQGTKVTVSS | low polyreactivity |
| QVQLVESGGGLVQAGGSLRLSCAASGAIFGGYAMGWYRQAPGKERELVAAISSGGSTNYADSVKGRFTISRDNAKNTVYLQMNSLKPEDTAVYYCAVRGRLPHARQRGYVPKYYYWGQGTQVTVSS | high polyreactivity |
| QVQLVESGGGLVQAGGSLRLSCAASGCTFPLYLMGWYRQAPGKERELVAAIDWSGGSTYYADSVKGRFTISRDNAKNTVYLQMNSLKPEDTAVYYCAARYTSLRNYGYDYWGQGTQVTVSS | low polyreactivity |
| QVQLVESGGGLVQAGGSLRLSCAASGDISYIYAMGWYRQAPGKEREMVADISSSVGNTYYADSVKGRFTISRDNAKNTVYLQMNSLKPEDTAVYYCNADYVQPTESGGTYDYWGQGTQVTVSS | low polyreactivity |
| QVQLVESGGGLVQAGGSLRLSCAASGDIYDAYAMGWYRQAPGKERELVAAISRSGGSTYYSDSVKGRFTISRDNAKNTVYLLMNSLKPEDTAVYYCATRFSRRYVRYDYWGQGTQVTVSS | high polyreactivity |
| QVQLVESGGGLVQAGGSLRLSCAASGDTFPKYAMGWYRQAPGKERELVAAITKRGGRTYYADSVKGRFTISRDNAKNTVYLQMNRVKPEDTAVYYCAVDLDGPEYSQVHYDYWGQGTQVTVSS | high polyreactivity |
| QVQLVESGGGLVQAGGSLRLSCAASGFAFSYYAMGWYRQAPGKEREFVASIDWSGGSTYYADSVKGRFTISRDNAKNIVYLQMNSLKPEDTAVYYCAAELDYFPGYDYWGQGTQVTVSS | low polyreactivity |
| QVQLVESGGGLVQAGGSLRLSCAASGFIFADYAMGWYRQAHGKERELVAAITRSGGRTYYADSVKGRFTISRDTAKNTVYVQMNSLKPDDTAVYYCNAGYAHTYDYWGQGTQVTVSS | high polyreactivity |
| QVQLVESGGGLVQAGGSLRLSCAASGFIFAEYAMGWYRQAPGKERELVATINIGGSTYYADSVKGRFTISRDNAKNTVYLQMTSLKPEDTAVYYCAAEFWWGDGSQGIYDYDYWGQGTQVSVSS | low polyreactivity |
| QVQLVESGGGLVQAGGSLRLSCAASGFIFAGYAMGWYRQAPGKERELVAAISGSGGRTYYADSVKGRFTISRDNAKNTVYLQMNSLKPEDTAVYYCNAGKQYRYDWGQGTQVTVSS | high polyreactivity |
| QVQLVESGGGLVQAGGSLRLSCAASGFIFAPNAMGWYRQAPGKERELVAAISHSGASTFYADSVKGRFTISRDNAKNTVYLQMNSLKPEDTAVYYCAAPPYYSYDYWGQGTQVTVSS | low polyreactivity |
| QVQLVESGGGLVQAGGSLRLSCAASGFIFAPYAMGWYRQAPGKEREFVASITYGSDSTYYADSVKGRFTISRDNAKNTVYLQMNSLKPEDTAVYYCNREGWHYGPYGYWGQGTQVTVSS | low polyreactivity |
| QVQLVESGGGLVQAGGSLRLSCAASGFIFARNTMGWYRQAPGKERELVAAITKSGGSTNYADSVKGRFTISRDNAKNTVYLQMNSLKPEDTAVYYCAARTYTLRGVYFSGYNYWGQGTQVTVSS | low polyreactivity |
| QVQLVESGGGLVQAGGSLRLSCAASGFIFARYAMGWYRQAPGKERELVARITTGDSTYYADSVKGRFTISRDNAKNTVYLQMNSLKPEDTAVYYCAADDNVSVVGLYYWGQGTQVTVSS | low polyreactivity |
| QVQLVESGGGLVQAGGSLRLSCAASGFIFARYAMGWYRQAPGKERELVATISKSGGRTYYADSVKGRFTISRDNAKNTVYLQMNSLKPEDTAVYYCATRYSTTSPGDDYWGQGTQVTVSS | high polyreactivity |
| QVQLVESGGGLVQAGGSLRLSCAASGFIFASYAMGWYRQAPVKERELVAAISSCGGRTYYADSVKGRFTISRDNAKNTVNLQMNSLKPEDTAVYYCAADWRFTYDYWGQGTQVTVSS | high polyreactivity |
| QVQLVESGGGLVQAGGSLRLSCAASGFIFASYAMGWYRQATGKERELVAAITQSGGITYYADSVKGRFTISRDNAKNTVYLQMNSLKPEDTAVYYCNTPLMKRTTRGRERNYWGQGTQVTVSS | low polyreactivity |
| QVQLVESGGGLVQAGGSLRLSCAASGFIFASYTMGWYRQAPGKERELVASISRRRGSTYYADSVKGRFTISRDIAKNTVYLQMNILKPEDTAVYYCAAERLTIDYDYWGQGTQVTVSS | high polyreactivity |
| QVQLVESGGGLVQAGGSLRLSCAASGFIFATNAMGWYIQAPGKERELVAAITWSGATTYYADSVKGRFTISRDNAKNTVYLQMNSLKPEDTAVYYCAARRYVYGSPYSTYRYGYWGQGTQVTVSS | high polyreactivity |
| QVQLVESGGGLVQAGGSLRLSCAASGFIFATNPMGWYRQAPGKERELVAASSTYYADSVKGRFTISRDNAKNTVYLQMNSLKPEDTAVYYCNADRDSYIGFVDWAGEYWGQGTQVTVSS | low polyreactivity |
